Measurements reported in patent US20170152286A1.
Positions of bridges follow the written chain, without caps; N, C: chain ends. Non-standard residues stand in square brackets, D forms with d. No end group written: not given here. Lys(5-OH) = 5-hydroxyl lysine

Target: MAGUK GK domain
Assay: ITC

Kd: 5.9 µM
B1: K(OH)D lactam-type stapled peptide (2), i, i+4 stapled peptide made from linear peptide Ala-Arg-Arg-Asp(salicylaldehyde ester)-Glu-Tyr-Leu-Lys(5-OH)-Ala-Ile-Gln (peptide)
peptide: ARRDEYL[Lys(5-OH)]AIQ-NH2
modifications: lactam 4-8
